Experimental data: IntAct's records for PubMed 31481669

B1: EKC/KEOPS complex subunit LAGE3 (Homo sapiens), Q14657 (parent)
chain: MRDADADAGGGADGGDGRGGHSCRGGVDTAAAPAGGAPPAHAPGPGRDAASAARGSRMRPHIFTLSVPFPTPLEAEIAHGSLAPDAEPHQRVVGKDLTVSGRILVVRWKAEDCRLLRISVINFLDQLSLVVRTMQRFGPPVSR
partner: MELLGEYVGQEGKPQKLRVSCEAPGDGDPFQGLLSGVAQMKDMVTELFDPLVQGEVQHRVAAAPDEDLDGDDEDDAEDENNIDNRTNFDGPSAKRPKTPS

Variants of: B1
Settings: with gon7_human GON7, Q9BXV9

effect of a mutation on the interaction | Variant
with no effect | MRDADADAGGGADGGDGRGGHSCRGGVDTAAAPAGGAPPAHAPGPGRDAASAARGSRMRPHIFTLSVPFPTPLEAEIAHGSLAPDAEPHQRVVGKDLTVSGRILVVRWKAEDCRLLRISVINFLDQLSLVVRTMQRSGPPVSR [F137S]
with no effect | MRDADADAGGGADGGDGRGGHSCRGGVDTAAAPAGGAPPAHAPGPGRDAASAARGSRMRPHIFTLSVPFPTPLEAEIAHGSLAPDAEPHQRVVGKDLTVSGRILVFRWKAEDCRLLRISVINFLDQLSLVVRTMQRFGPPVSR [V106F]
